Reference: article PMC6829621, “An RBPJ-Drosophila Model Reveals Dependence of RBPJ Protein Stability on the Formation of Transcription–Regulator Complexes” (Cells, 2019)

Target: T1, full-length Drosophila Hairless (Drosophila melanogaster, UniProt Q02308 1-1077)
T1 construct: Hairless (H), Drosophila melanogaster, full length (pEG-HFL); also called pEG-HFL; source: yeast two-hybrid fusion (EGY48 yeast, pEG202 vector)
T1 sequence (looked up): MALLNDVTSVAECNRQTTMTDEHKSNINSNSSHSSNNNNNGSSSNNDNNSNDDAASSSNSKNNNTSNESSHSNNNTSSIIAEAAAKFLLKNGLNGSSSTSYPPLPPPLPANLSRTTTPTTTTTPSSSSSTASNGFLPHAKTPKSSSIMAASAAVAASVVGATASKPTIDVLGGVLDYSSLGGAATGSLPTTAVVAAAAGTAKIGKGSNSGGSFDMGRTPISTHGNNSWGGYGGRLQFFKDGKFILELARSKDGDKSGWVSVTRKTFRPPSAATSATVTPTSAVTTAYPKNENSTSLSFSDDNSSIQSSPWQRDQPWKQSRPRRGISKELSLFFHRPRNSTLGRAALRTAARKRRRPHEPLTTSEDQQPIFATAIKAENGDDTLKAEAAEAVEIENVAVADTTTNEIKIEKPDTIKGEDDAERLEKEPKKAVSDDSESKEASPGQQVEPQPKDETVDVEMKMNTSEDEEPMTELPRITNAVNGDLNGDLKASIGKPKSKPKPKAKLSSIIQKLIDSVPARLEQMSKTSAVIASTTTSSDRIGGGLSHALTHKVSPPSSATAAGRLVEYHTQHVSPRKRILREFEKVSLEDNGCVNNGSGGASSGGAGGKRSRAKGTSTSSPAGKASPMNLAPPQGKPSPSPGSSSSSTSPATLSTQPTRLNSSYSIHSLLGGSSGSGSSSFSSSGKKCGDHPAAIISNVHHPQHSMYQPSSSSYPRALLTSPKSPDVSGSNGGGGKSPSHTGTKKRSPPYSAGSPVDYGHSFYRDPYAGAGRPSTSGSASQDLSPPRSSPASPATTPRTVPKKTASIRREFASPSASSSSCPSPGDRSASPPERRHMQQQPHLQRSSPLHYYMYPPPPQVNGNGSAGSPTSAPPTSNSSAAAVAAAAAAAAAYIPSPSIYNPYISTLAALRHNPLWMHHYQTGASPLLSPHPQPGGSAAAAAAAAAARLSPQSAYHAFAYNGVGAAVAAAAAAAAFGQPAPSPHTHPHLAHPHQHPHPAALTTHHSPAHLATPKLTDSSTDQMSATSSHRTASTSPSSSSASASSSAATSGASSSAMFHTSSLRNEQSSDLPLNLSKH
Assay: two-hybrid; Golemis-Brent system in EGY48 yeast; H fused to LexA DNA-binding domain in pEG202, CSL variants fused to B42-AD in pJG4-5; lacZ reporter pSH18-34; qualitative, and quantified in Miller Units (six clones from two experiments)
Details: partners not purified

- interaction strength relative to that between H and Su(H): ~40%
B1: mouse RBPJ, wild type (natural protein)
chain: not shown
notes: RBPJ, Mus musculus, full-length protein in pJG vector; This is the yeast construct, not the Su(H) exon 1-RBPJ fusion of the flies; also called RBPJ^wt; murine RBPJ; source: yeast two-hybrid fusion (EGY48 yeast, pJG4-5 vector)
